From patent US20190092856A1 (published 2019)
Where a chain is given by its changes, count along the chain named. Blank lines part the entries; values can stand above or below the binder they belong to.

Experiments:
[1] = target: T1, human OSM (recombinant, mammalian-cell derived, OSMN1-1) (human, UniProt P13725 26-221); experiment: SPR (Biacore), mAb captured by anti-Fc, OSM as analyte
T1 construct: Precursor and mature (amino acids 1-184) forms were both expressed in HEK 293; also called hOSM; human oncostatin M
T1 sequence: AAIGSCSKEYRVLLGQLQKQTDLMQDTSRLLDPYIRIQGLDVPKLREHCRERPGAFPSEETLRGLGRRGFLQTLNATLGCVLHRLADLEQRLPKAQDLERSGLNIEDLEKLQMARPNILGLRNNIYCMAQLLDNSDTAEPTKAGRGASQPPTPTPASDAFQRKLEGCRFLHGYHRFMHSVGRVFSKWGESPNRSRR
Method: (§1) The binding affinities were measured using Surface Plasmon Resonance (SPR) with a Biacore 3000 optical biosensor (Biacore) using human or Cyno OSM constructs as described. […] Approximately 19,000 RU (response units) of anti-OSM antibody were immobilized in each of four flow cells. The kinetic experiments were performed at 25° C. in running buffer (DPBS+0.005% P20+3 mM EDTA). Serial dilutions Human and Cyno OSM ECD from 100 nM to 0.412 nM were prepared in running buffer. About 200 RU of mAb were captured on flow cells 2 to 4 of the sensor chip. Flow cell 1 was used as reference surface. Capture of mAb was followed by a three-minute injection (association phase) of antigen at 50 μl/min, followed by 10 minutes of buffer flow (dissociation phase). The chip surface was regenerated by two pulses of 18-second injections of 100 mM H3PO4 (Sigma, Cat. No. 7961) at 50 μl/min.
(§2) The collected data was processed using the BIAevaluation software (Biacore, version 3.2). First, double reference subtraction of the data was performed by subtracting the curves generated by buffer injection from the reference-subtracted curves for analyte injections. Kinetic analysis of the data was performed using 1:1 binding model with global fit. The result for each mAb was reported in the format of Ka (On-rate), Kd (Off-rate) and KD (affinity constant).

[2] = target: T2, Cynomolgus monkey (Macaca fascicularis) OSM, recombinant, in-house (cynomolgus monkey, UniProt P13725 26-221 (human entry), limits assumed); experiment: as above
T2 construct: His/AviTag construct expressed in HEK 293; also called Cyno OSM; cyno OSM
T2 chain: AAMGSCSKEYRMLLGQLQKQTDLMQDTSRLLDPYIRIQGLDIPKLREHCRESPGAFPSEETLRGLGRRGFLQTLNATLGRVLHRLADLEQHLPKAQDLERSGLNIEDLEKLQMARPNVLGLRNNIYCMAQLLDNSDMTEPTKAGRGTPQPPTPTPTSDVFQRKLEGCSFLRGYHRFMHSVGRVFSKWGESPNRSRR
Method: as §1, §2

[3] = target: T2, Cynomolgus monkey (Macaca fascicularis) …; experiment: SPR (Biacore), KD for cyno OSM over KD for human OSM
Method: as §1, §2

[4] = target: T1, human OSM (recombinant, mammalian-cell …); experiment: SPR competition, second chip, hOSM captured on immobilized M55 (competitor), sample at 300 nM
Method: (§3) The biosensor surface was prepared by coupling each test mAb to the carboxymethylated dextran surface of a CM-5 chip (Biacore, Cat# BR-1000-14) following the manufacturer's instructions. Approximately 4,000-15,000 RU (response units) of each test mAb were immobilized in one the instrument's four flow cells. Competition experiments were performed at 25 ° C. in running buffer (DPBS+0.005% P20+3 mM EDTA). Human OSM (in-house, OSMN1-1) was diluted to 30 nM in running buffer and injected at 3 μl/min for 3 minutes over each of the flow cells with immobilized mAb. […] The chip surface was regenerated by two 12-second pulses of 100 mM H3PO4 (Sigma, Cat# 7961) at 50 μl/min. The collected data were processed using BIAevaluation software version 3.2 (Biacore). First, the sensorgrams were aligned upon injection of human OSM. […] Flow-cell (Fc1, etc.) immobilized mAbs appear along the horizontal sample rows of Table 10.

[5] = target: T1, human OSM (recombinant, mammalian-cell …); experiment: SPR competition, hOSM captured on immobilized M69 (competitor), sample at 300 nM
Method: as §3

[6] = target: T1, human OSM (recombinant, mammalian-cell …); experiment: SPR competition, second chip, hOSM captured on immobilized M64 (competitor), sample at 300 nM
Method: as §3

[7] = target: T1, human OSM (recombinant, mammalian-cell …); experiment: SPR competition, hOSM captured on immobilized M71 (competitor), sample at 300 nM
Method: as §3

[8] = target: T1, human OSM (recombinant, mammalian-cell …); experiment: SPR competition, hOSM captured on immobilized M2 (competitor), sample at 300 nM
Method: as §3

[9] = target: T1, human OSM (recombinant, mammalian-cell …); experiment: SPR competition, hOSM captured on immobilized M54 (competitor), sample at 300 nM
Method: as §3

[10] = target: T1, human OSM (recombinant, mammalian-cell …); experiment: SPR competition, second chip, hOSM captured on immobilized M2 (competitor), sample at 300 nM
Method: as §3

[11] = target: T1, human OSM (recombinant, mammalian-cell …); experiment: cell-based or functional assay
[12] = target: T1, human OSM (recombinant, mammalian-cell …); experiment: cell-based or functional assay; remark: listed apart in the source
[13] = target: T3, native human Oncostatin M (macrophage-derived) (human, UniProt P13725 26-221, limits assumed); experiment: cell-based or functional assay
T3 sequence: T1 sequence

[14] = target: T4, CHO cell-derived recombinant human oncostatin M (in-house) (human, UniProt P13725 26-221, limits assumed); experiment: cell-based or functional assay
T4 sequence: T1 sequence

[15] = target: T5, CHO cell-derived recombinant cynomolgous monkey oncostatin M (in-house) (cynomolgus monkey, UniProt P13725 26-221 (human entry), limits assumed); experiment: cell-based or functional assay
T5 chain: T2 chain

Binding Level (RU) [4]: 25 RU
Binding Level (RU) [5]: 20 RU
Binding Level (RU) [6]: 18 RU
Binding Level (RU) [7]: 29 RU
Binding Level (RU) [8]: 319 RU
Binding Level (RU) [9]: 17 RU
Binding Level (RU) [10]: 251 RU
B2: Human gp130-Fc (R&D Systems, Cat. No. 671-GP) (Fc fusion, UniProt P40189 23-619, looked up)
chain: ELLDPCGYISPESPVVQLHSNFTAVCVLKEKCMDYFHVNANYIVWKTNHFTIPKEQYTIINRTASSVTFTDIASLNIQLTCNILTFGQLEQNVYGITIISGLPPEKPKNLSCIVNEGKKMRCEWDGGRETHLETNFTLKSEWATHKFADCKAKRDTPTSCTVDYSTVYFVNIEVWVEAENALGKVTSDHINFDPVYKVKPNPPHNLSVINSEELSSILKLTWTNPSIKSVIILKYNIQYRTKDASTWSQIPPEDTASTRSSFTVQDLKPFTEYVFRIRCMKEDGKGYWSDWSEEASGITYEDRPSKAPSFWYKIDPSHTQGYRTVQLVWKTLPPFEANGKILDYEVTLTRWKSHLQNYTVNATKLTVNLTNDRYLATLTVRNLVGKSDAAVLTIPACDFQATHPVMDLKAFPKDNMLWVEWTTPRESVKKYILEWCVLSDKAPCITDWQQEDGTVHRTYLRGNLAESKCYLITVTPVYADGPGSPESIKAYLKQAPPSKGPTVRTKKVGKNEAVLEWDQLPVDVQNGFIRNYTIFYRTIIGNETAVNVDSSHTEYTLSSLTSDTLYMVRMAAYTDEGGKDGPEFTFTTPKFAQGEIE
notes: Bought fusion protein; also called gp130-Fc chimera; Fc part of the bought chimera not given, not described

Binding Level (RU) [4]: 22 RU
IC50, neutralization of OSM-induced STAT3 phosphorylation in NHLF cells (2 ng/ml OSM) [12]: 8.9 ng/mL
EC50, increase of proteoglycan synthesis in macrophage-chondrocyte co-culture [13]: 30 ng/mL
Binding Level (RU) [5]: 23 RU
Binding Level (RU) [6]: 17 RU
Binding Level (RU) [7]: 32 RU
IC50, neutralization of OSM suppression of A375-S2 proliferation (BrdU) [14]: 21.9 ng/mL
IC50, neutralization of OSM suppression of A375-S2 proliferation (BrdU) [15]: 39.7 ng/mL
Binding Level (RU) [8]: 1190 RU
Binding Level (RU) [9]: -1 RU
Binding Level (RU) [10]: 1130 RU
pSTAT3 inhibition EC50 (A375 cells, 5 ng/ml hOSM) [11]: 160 ng/ml
B5: M71 (antibody, V domains shown)
VH: EVQLVQSGAEVKKPGESLKISCKGSGYSFTSYWISWVRQMPGKGLEWMGIIYPGDSYTRYSPSFQGQVTISADKSISTAYLQWSSLKASDTAMYYCARVPVSPAYLDYWGQGTLVTVSS
VL: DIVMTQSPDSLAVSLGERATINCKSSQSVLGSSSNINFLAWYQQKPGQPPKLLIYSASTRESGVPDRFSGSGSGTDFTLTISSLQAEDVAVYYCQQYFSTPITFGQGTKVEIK
notes: Human IgG1; also called H17/L180

The next lines start with the binder.

B1: M10 (antibody, V domains shown)
VH: QVQLVQSGAEVKKPGSSVKVSCKASGGTFSSYAISWVRQAPGQGLEWMGGIIPIFGNANYAQKFQGRVTITADESTSTAYMELSSLRSEDTAVYYCARYGAKGLLDYWGQGTLVTVSS
VL: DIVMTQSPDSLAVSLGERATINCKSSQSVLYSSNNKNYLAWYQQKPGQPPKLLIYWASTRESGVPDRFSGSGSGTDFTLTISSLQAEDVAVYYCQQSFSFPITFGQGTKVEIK
notes: Tested as full-length human IgG1; also called OSMM10; H2/L2
Kd [1]: 1.05 nM
koff [1]: 6.3e-05 s⁻¹
kon [1]: 60200 M⁻¹ s⁻¹
Kd [2]: 18.9 nM
koff [2]: 0.00101 s⁻¹
kon [2]: 53300 M⁻¹ s⁻¹
KD ratio Cyno/Human [3]: 18.1

B3: M9 (antibody, V domains shown)
VH: B5 VH
VL: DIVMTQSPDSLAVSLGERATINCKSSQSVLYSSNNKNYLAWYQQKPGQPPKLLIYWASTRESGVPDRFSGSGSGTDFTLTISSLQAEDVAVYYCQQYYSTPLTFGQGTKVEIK
notes: Tested as full-length human IgG1; also called OSMM9
Kd [1]: 1.22 nM
koff [1]: 8.1e-05 s⁻¹
kon [1]: 66300 M⁻¹ s⁻¹
Kd [2]: 0.73 nM
koff [2]: 5.4e-05 s⁻¹
kon [2]: 73100 M⁻¹ s⁻¹
KD ratio Cyno/Human [3]: 0.6
pSTAT3 inhibition EC50 (A375 cells, 5 ng/ml hOSM) [11]: 1220 ng/ml

B4: M6 (antibody, V domains shown)
VH: B5 VH with V99G, P100S, S102F, P103E, L106F
VL: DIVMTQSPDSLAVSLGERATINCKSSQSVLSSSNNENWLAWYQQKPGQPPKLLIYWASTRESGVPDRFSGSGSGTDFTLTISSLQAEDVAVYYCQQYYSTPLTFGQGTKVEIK
notes: Tested as full-length human IgG1; also called OSMM6; H14/L12
Binding Level (RU) [4]: 36 RU
Binding Level (RU) [5]: 16 RU
Binding Level (RU) [6]: 33 RU
Binding Level (RU) [7]: 19 RU
Binding Level (RU) [8]: 985 RU
Binding Level (RU) [9]: 11 RU
Binding Level (RU) [10]: 926 RU
Kd [1]: 1.03 nM
koff [1]: 0.000197 s⁻¹
kon [1]: 192000 M⁻¹ s⁻¹
Kd [2]: 1.48 nM
koff [2]: 0.000299 s⁻¹
kon [2]: 203000 M⁻¹ s⁻¹
KD ratio Cyno/Human [3]: 1.4
pSTAT3 inhibition EC50 (A375 cells, 5 ng/ml hOSM) [11]: 650 ng/ml

B6: M5 (antibody, V domains shown)
VH: EVQLVQSGAEVKKPGESLKISCKGSGYSFTSYWIGWVRQMPGKGLEWMGIIYPGDSDTRYSPSFQGQVTISADKSISTAYLQWSSLKASDTAMYYCARGFGASYLDYWGQGTLVTVSS
VL: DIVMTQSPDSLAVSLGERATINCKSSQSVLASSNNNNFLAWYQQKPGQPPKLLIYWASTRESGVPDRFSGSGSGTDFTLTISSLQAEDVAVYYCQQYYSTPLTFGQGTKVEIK
notes: Tested as full-length human IgG1; also called OSMM5; H135/L111
Kd [1]: 11.8 nM
koff [1]: 0.000779 s⁻¹
kon [1]: 65900 M⁻¹ s⁻¹
Kd [2]: 12.1 nM
koff [2]: 0.00111 s⁻¹
kon [2]: 92200 M⁻¹ s⁻¹
KD ratio Cyno/Human [3]: 1
